Data: the Human Domainome abundance scans (Beltran et al. 2025)
± gives the uncertainty stated by the source.

B1: Cell division cycle and apoptosis regulator protein 1, residues 625 to 674; numbered along this chain, Q8IX12 (parent)
chain: ISTPTHWSKLDPKTMKVNDLRKELESRALSSKGLKSQLIARLTKQLKVEE

Variants of: B1
Assay: abundance fitness (aPCA) (normalised: wild type 0, dead -1); higher = more abundant; growth selection in yeast, the domain comes from the species named
Settings: Homo sapiens

ISTPTHWSKLDPKTMKVNDLRKELESRALSSKGLKSQLIARLTKQLGVEE [K47G] and ISTPTHWSKLDPKTMKVNDLRKELESRALSSKGLKSQLIARLTKQLLVEE [K47L] are within error of each other in abundance fitness: -0.128 ± 0.034 for the first, -0.151 ± 0.036 for the second.

ISTPTHWSKLDPKTMKVNDLRKELESRALSSKGLKSQLIARLTKQLYVEE [K47Y] and ISTPTHWSKLDPKTMKVNDLRKELESRALSSKGLKSQLIARLTKQLHVEE [K47H] are within error of each other in abundance fitness: -0.261 ± 0.057 for the first, -0.212 ± 0.059 for the second.

ISTPTHWSKLDPKTMKVNDLRKELESRALSSKGLKSQLIARLTKQLDVEE [K47D] and ISTPTHWSKLDPKTMKVNDLRKELESRALSSKGLKSQLIARLTKQLIVEE [K47I] are within error of each other in abundance fitness: -0.204 ± 0.05 for the first, -0.179 ± 0.06 for the second.

Going from ISTPTHWSKLDPKTMKVNDLRKELESRALSSKGLKSQLIARLTKQLWVEE [K47W] to ISTPTHWSKLDPKTMKVNDLRKELESRALSSKGLKSQLIARLTKQLPVEE [K47P], the abundance fitness falls from -0.334 ± 0.053 to -0.806 ± 0.095.

ISTPTHWSKLDPKTMKVNDLRKELESRALSSKGLKSQLIARLTKQLTVEE [K47T] and ISTPTHWSKLDPKTMKVNDLRKELESRALSSKGLKSQLIARLTKQLAVEE [K47A] are within error of each other in abundance fitness: -0.131 ± 0.062 for the first, -0.146 ± 0.045 for the second.

Going from ISTPTHWSKLDPKTMKVNDLRKELESRALSSKGLKSQLIARLTKQLMVEE [K47M] to ISTPTHWSKLDPKTMKVNDLRKELESRALSSKGLKSQLIARLTKQLRVEE [K47R], the abundance fitness rises from -0.266 ± 0.053 to -0.083 ± 0.029.

ISTPTHWSKLDPKTMKVNDLRKELESRALSSKGLKSQLIARLTKQLEVEE [K47E] and ISTPTHWSKLDPKTMKVNDLRKELESRALSSKGLKSQLIARLTKQLCVEE [K47C] are within error of each other in abundance fitness: -0.23 ± 0.05 for the first, -0.265 ± 0.058 for the second.

First: ISTPTHWSKLDPKTMKVNDLRKELESRALSSKGLKSQLIARLTKQLVVEE [K47V]
Second: ISTPTHWSKLDPKTMKVNDLRKELESRALSSKGLKSQLIARLTKQLFVEE [K47F]
The abundance fitness of the first is higher: -0.168 ± 0.037 for the first, -0.489 ± 0.095 for the second.

ISTPTHWSKLDPKTMKVNDLRKELESRALSSKGLKSQLIARLTKQLQVEE [K47Q] and ISTPTHWSKLDPKTMKVNDLRKELESRALSSKGLKSQLIARLTKQLNVEE [K47N] are within error of each other in abundance fitness: -0.196 ± 0.047 for the first, -0.106 ± 0.046 for the second.

First: ISTPTHWSKLDPKTMKVNDLRKELESRALSSKGLKSQLIARLTKQLKVCE [E49C]
Second: ISTPTHWSKLDPKTMKVNDLRKELESRALSSKGLKSQLIARLTKQLKVLE [E49L]
The abundance fitness of the first is higher: -0.606 ± 0.089 for the first, -0.983 ± 0.043 for the second.

ISTPTHWSKLDPKTMKVNDLRKELESRALSSKGLKSQLIARLTKQLKVIE [E49I] and ISTPTHWSKLDPKTMKVNDLRKELESRALSSKGLKSQLIARLTKQLKVME [E49M] are within error of each other in abundance fitness: -0.943 ± 0.19 for the first, -0.937 ± 0.056 for the second.

Compared with ISTPTHWSKLDPKTMKVNDLRKELESRALSSKGLKSQLIARLTKQLKVPE [E49P], ISTPTHWSKLDPKTMKVNDLRKELESRALSSKGLKSQLIARLTKQLKVDE [E49D] is higher in abundance fitness: -0.86 ± 0.068 for the first, -0.41 ± 0.048 for the second.

First: ISTPTHWSKLDPKTMKVNDLRKELESRALSSKGLKSQLIARLTKQLKVKE [E49K]
Second: ISTPTHWSKLDPKTMKVNDLRKELESRALSSKGLKSQLIARLTKQLKVAE [E49A]
The abundance fitness of the first is lower: -1.19 ± 0.22 for the first, -0.867 ± 0.053 for the second.

ISTPTHWSKLDPKTMKVNDLRKELESRALSSKGLKSQLIARLTKQLKVGE [E49G] and ISTPTHWSKLDPKTMKVNDLRKELESRALSSKGLKSQLIARLTKQLKVNE [E49N] are within error of each other in abundance fitness: -0.919 ± 0.044 for the first, -0.909 ± 0.12 for the second.

Going from ISTPTHWSKLDPKTMKVNDLRKELESRALSSKGLKSQLIARLTKQLKVQE [E49Q] to ISTPTHWSKLDPKTMKVNDLRKELESRALSSKGLKSQLIARLTKQLKHEE [V48H], the abundance fitness rises from -0.592 ± 0.056 to -0.106 ± 0.07.

Compared with ISTPTHWSKLDPKTMKVNDLRKELESRALSSKGLKSQLIARLTKQLKDEE [V48D], ISTPTHWSKLDPKTMKVNDLRKELESRALSSKGLKSQLIARLTKQLKPEE [V48P] is lower in abundance fitness: -0.114 ± 0.067 for the first, -0.795 ± 0.046 for the second.

ISTPTHWSKLDPKTMKVNDLRKELESRALSSKGLKSQLIARLTKQLKAEE [V48A] and ISTPTHWSKLDPKTMKVNDLRKELESRALSSKGLKSQLIARLTKQLKCEE [V48C] are within error of each other in abundance fitness: -0.117 ± 0.043 for the first, -0.113 ± 0.038 for the second.

ISTPTHWSKLDPKTMKVNDLRKELESRALSSKGLKSQLIARLTKQLKLEE [V48L] and ISTPTHWSKLDPKTMKVNDLRKELESRALSSKGLKSQLIARLTKQLKKEE [V48K] are within error of each other in abundance fitness: -0.06 ± 0.045 for the first, 0.009 ± 0.053 for the second.

ISTPTHWSKLDPKTMKVNDLRKELESRALSSKGLKSQLIARLTKQLKWEE [V48W] and ISTPTHWSKLDPKTMKVNDLRKELESRALSSKGLKSQLIARLTKQLKTEE [V48T] are within error of each other in abundance fitness: -0.178 ± 0.05 for the first, -0.073 ± 0.055 for the second.

ISTPTHWSKLDPKTMKVNDLRKELESRALSSKGLKSQLIARLTKQLKREE [V48R] and ISTPTHWSKLDPKTMKVNDLRKELESRALSSKGLKSQLIARLTKQLKIEE [V48I] are within error of each other in abundance fitness: -0.02 ± 0.036 for the first, 0.054 ± 0.059 for the second.

ISTPTHWSKLDPKTMKVNDLRKELESRALSSKGLKSQLIARLTKQLKQEE [V48Q] and ISTPTHWSKLDPKTMKVNDLRKELESRALSSKGLKSQLIARLTKQLKSEE [V48S] are within error of each other in abundance fitness: -0.06 ± 0.042 for the first, -0.059 ± 0.033 for the second.

ISTPTHWSKLDPKTMKVNDLRKELESRALSSKGLKSQLIARLTKQLKMEE [V48M] and ISTPTHWSKLDPKTMKVNDLRKELESRALSSKGLKSQLIARLTKQLKGEE [V48G] are within error of each other in abundance fitness: -0.092 ± 0.069 for the first, -0.154 ± 0.04 for the second.

ISTPTHWSKLDPKTMKVNDLRKELESRALSSKGLKSQLIARLTKQLKNEE [V48N] and ISTPTHWSKLDPKTMKVNDLRKELESRALSSKGLKSQLIARLTKQLKEEE [V48E] are within error of each other in abundance fitness: 0.031 ± 0.046 for the first, -0.023 ± 0.051 for the second.

Compared with ISTPTHWSKLDPKTMKVNDLRKELESRALSSKGLKSQLIARLTKQLKFEE [V48F], ISTPTHWSKLDPKTMKVNDLRKELESRALSSKGLKSQLIARLTKQLKYEE [V48Y] is lower in abundance fitness: 0.018 ± 0.074 for the first, -0.207 ± 0.082 for the second.

Going from ISTPTHWSKLDPKTMKVNDLRKELESRALSSKGLKSQLIARLPKQLKVEE [T43P] to ISTPTHWSKLDPKTMKVNDLRKELESRALSSKGLKSQLIARLRKQLKVEE [T43R], the abundance fitness rises from -0.721 ± 0.043 to 0.103 ± 0.03.

ISTPTHWSKLDPKTMKVNDLRKELESRALSSKGLKSQLIARLSKQLKVEE [T43S] and ISTPTHWSKLDPKTMKVNDLRKELESRALSSKGLKSQLIARLVKQLKVEE [T43V] are within error of each other in abundance fitness: -0.048 ± 0.047 for the first, -0.057 ± 0.041 for the second.
